This passage reports IC50, EC50 and Kd results from patent US20260116960A1 (SHANGHAI HONGCHENG BIOPHARMACEUTICAL, published 2026).

By IC50 is commonly meant the concentration needed to halve the response being measured. As a reminder, the EC50 is the midpoint of the concentration-response curve. Read a high EC50 as weaker potency. As usually defined, the Kd is the equilibrium constant for the complex coming apart. The low end stands for a tighter complex, the high end for a looser complex.

In assay [1] the target is T1, human CTLA-4 on the cell surface (human, UniProt P16410 36-223).
T1 construct: whole, on cells; also called CHO-hCTLA-4 cells; CHOK1-hCTLA4 cells
The experiment in a line: flow cytometry competition, CHO-hCTLA-4 cells, biotin-human CD80. On the procedure:
CHO-hCTLA-4 cells were obtained by trypsin digestion, washed twice with PBS containing 2% FBS (FACS buffer), and resuspended in FACS buffer. 200 μL of the cells were added to a 96-well U-bottom plate, approximately 2×10⁵ cells/well. After centrifugation at 300 g for 5 minutes, the supernatant was discarded. […] After washing three times with FACS buffer, 100 μL/well of 1:800 diluted PE Streptavidin was added and incubated at 4° C. for 50 min. After washing three times with FACS buffer, 150 μL/well of PBS was added to resuspend the cells, and the fluorescence signal was detected on a flow cytometer (BECKMAN COULTER cytoFLEX). The four-parameter model was used to fit the binding activity and the IC₅₀ value of the blocking activity of each antibody was calculated.
(Flow cytometry measures light scatter and fluorescence of single cells or particles in a stream.)

The target in assay [2] is T1, human CTLA-4 on the cell surface. The assay is described as follows: flow cytometry competition, 293T-hPD-1-hCTLA-4 cells (PD-1 co-expressed), biotin-human CD80. On the procedure: PD-1 and CTLA-4 are co-expressed on functionally exhausted T cells in the tumor microenvironment, and the expression level of PD-1 is higher than that of CTLA-4. […] 200 μL of the cells were added to a 96-well U-bottom plate, approximately 1.4×10⁵ cells/well. After centrifugation at 300 g for 5 minutes, the supernatant was discarded. […] After washing three times with FACS buffer, 100 μL/well of 1:800 diluted PE Streptavidin was added and incubated at 4° C. for 50 min. After washing three times with FACS buffer, 150 μL/well of PBS was added to resuspend the cells, and the fluorescence signal was detected on a flow cytometer (BECKMAN COULTER cytoFLEX). The binding activity was fitted using a four-parameter model, and the IC₅₀ value of the blocking activity of each antibody was calculated.

Assay [3] shares this target. The experiment in a line: flow cytometry on activated human T cells (CD3+), PE anti-human IgG Fc. How it is done: (§1) Human peripheral blood mononuclear cells (PBMCs, Miaoshun (Shanghai) Biotechnology Co., Ltd., Catalog No.: A19K154025) were rapidly thawed in a 37° C. water bath, resuspended in T cell isolating solution, and counted. After centrifugation at 400 g for 10 minutes, the supernatant was removed and the cells were resuspended to 5×10⁷ cells/mL with T cell separation buffer. T cells were isolated according to the procedure of a T cell isolation kit (Stemcell, Catalog No.: 19051), and the obtained T cells were resuspended in culture medium. The cells were counted using NucleoCounter NC-200 and the T cell density was adjusted to approximately 1×10⁶ cells/mL. Dynabeads containing anti-CD3 and anti-CD28 antibodies (Invitrogen™, Catalog No.: 11132D) and 10 ng/ml hIL-2 (Peprotech, Catalog No.: 200-02) were added and cultured in a 37° C., 5% CO₂ incubator for 3 days. After removing Dynabeads and supernatant, the activated T cells were resuspended in FACS buffer. The cell density was adjusted to about 1×10⁶ cells/mL, and 100 μL of cell solution was added into a 96-well U-bottom plate, 1×10⁵ cells/well. After centrifugation at 500 g for 5 minutes, the supernatant was discarded and 100 μL of the trispecific antibody solution of the present application serially diluted 3-fold with FACS buffer was added in triplicate, with a starting concentration of 200 nM. After mixing, incubated at 4° C. for 60 minutes. After centrifugation and washing three times with FACS buffer, 100 μL/well of PE anti-human IgG Fc (Biolegend, Catalog No.: 366903) was added and incubated at 4° C. for 50 minutes. After washing the plate three times with FACS buffer, 100 μL/well of BV421 anti-human CD3 antibody (OKT3) (Biolegend, Catalog No.: 317344) was added and incubated at 4° C. for 50 minutes. After washing the plate three times with FACS buffer, 70 μL/well of PBS solution was added to resuspend the cells, and the fluorescent signal on CD3 T cells was detected on a flow cytometer (BD Cellesta). The binding activity was fitted using a four-parameter model, and the EC₅₀ value of each antibody binding to T cells was calculated.

The target is the same in assay [4]. The assay is described as follows: flow cytometry, CHO-hCTLA-4 cells, batch FACS#3.
In assay [5] the target is T2, human PD-1 on the cell surface (human, UniProt Q15116 25-288).
T2 construct: whole, on cells; also called cell surface PD-1
The assay is described as follows: flow cytometry, 293T-hPD-1 cells, batch FACS#2. On the procedure: (§2) After centrifugation at 300 g for 5 minutes, the supernatant was discarded. The antibodies were serially diluted 3-fold with FACS buffer to obtain two gradient series solution FACS #1 and FACS #2, with the starting concentration of 200 nM (Table 5, FACS #1) or 100 nM (Table 5, FACS #2, FIG. 2), respectively. Then 100 μL/well was added to a 96-well plate in triplicate, mixed, and incubated at 4° C. for 60 min. The plate was centrifuged and washed three times with FACS buffer. 100 μL/well of 1:800 diluted AF647-anti-hIgG(H+L) (Jackson, Catalog No.: 109-605-003) was added and incubated at 4° C. for 50 minutes. After washing the plate three times with FACS buffer, 100 μL/well of FACS buffer was added to resuspend the cells, and the fluorescence signal was detected on a flow cytometer (BECKMAN COULTER cytoFLEX). The binding activity was fitted using a four-parameter model to calculate the EC₅₀ value of each antibody binding to PD-1.

The target in assay [6] is T3, human PD-1 protein (Acro, Catalog No. PD1-H5221) (human, UniProt Q15116 25-167).
T3 construct: Bought protein; also called human PD1-his; not shown: his tag
The assay is described as follows: ELISA, plate coated with human PD-1 protein. On the procedure: ELISA was used to determine the activity of the trispecific antibodies binding to the PD-1 protein: 1 μg/mL human PD-1 protein (Acro, Catalog No.: PD1-H5221) was used to coat a high-adsorption 96-well ELISA plate and incubated at 4° C. overnight. On the next day, the plate was washed three times with PBST solution and blocked with 1% BSA-PBS solution at 37° C. for 1 hour. At the same time, 3-fold gradient dilutions of the antibody were prepared with 1% BSA-PBS solution, with a starting concentration of 10 nM. The antibodies of each gradient concentration were added to the blocked 96-well ELISA plate at 100 µL/well in triplicate and incubated at 37° C. for 1 hour. The plate was then washed three times with 0.05% PBST solution, and 100 μL/well of HRP-labeled secondary antibody (Sigma, Catalog No.: A0170) diluted at 1:5000 was added to the ELISA plate and incubated at 37° C. for 1 hour. The plate was washed three times with 0.05% PBST solution and developed with TMB. The absorbance of the 96-well ELISA plate at 450 nm was detected by an ELISA reader. The OD₄₅₀ value was fitted using a four-parameter model to calculate the EC₅₀ value of each antibody binding to PD-1.
(ELISA stands for enzyme-linked immunosorbent assay.)

For assay [7], the target named is T2, human PD-1 on the cell surface. The assay is described as follows: flow cytometry competition, 293T-hPD-1 cells, biotin-human PD-L1. On the procedure:
50 μL of antibody solution serially diluted 3-fold in FACS buffer was added in triplicate, with a starting concentration of 200 nM. After mixing, incubated at 4° C. for 60 minutes. After washing three times with FACS buffer, 100 μL/well of 1:800 diluted PE Streptavidin was added and incubated at 4° C. for 50 min. After washing three times with FACS buffer, 150 μL/well of PBS was added to resuspend the cells, and the fluorescence signal was detected on a flow cytometer (BECKMAN COULTER cytoFLEX). The four-parameter model was used to fit the binding activity and the IC₅₀ value of the blocking activity of each antibody was calculated.

For assay [8] the target is unchanged. The assay is described as follows: blocking of PD-L1 binding to cell surface PD-1, comparison with pembrolizumab; comparison run with pembrolizumab, cell surface PD-1.
Assay [9] has the same target. The assay is described as follows: flow cytometry, 293T-hPD-1 cells, comparison with pembrolizumab. On the procedure: as §2
Assay [10] addresses T3, human PD-1 protein (Acro, Catalog No. …). The experiment in a line: BLI (Octet RED96e), antibody on AHC sensor, antigen as analyte 6.25-100 nM, 1:1 model. On the procedure: Octet® RED96e (ForteBio) was used to detect the affinity of trispecific antibodies to human PD-1, CTLA-4 and VEGFA. The specific method was as follows: the AHC Sensor was immersed in PBST (PBS containing 0.02% Tween) buffer for 10 minutes to activate the Sensor. The ligand (antibody to be tested) was diluted to 5 μg/mL with PBST buffer. […] The diluted ligand and analyte were added to the corresponding wells at 200 μL/well in triplicate. Program parameter settings: loading: 180 s, association: 180 s, dissociation: 600 s, regeneration: Gly-HCl pH 1.5, 30s, regeneration 3 times. […] Curve fit acceptance criteria: Full R\hat{ }2≥0.95.
On the technique in general: Biolayer interferometry detects binding as a change in optical thickness at a sensor tip.

Assay [11] has as its target human PD-1 protein (Acro, PD1-H5257) (human, UniProt Q15116 25-167). The experiment in a line: competitive ELISA, PD-1 coated, biotin-PD-L1 as labelled ligand. How it is done:
The next day, the plate was washed three times with PBS solution and blocked with 1% BSA-PBS solution at 37° C. for 1 hour. […] 100 μL of the antibody-protein mixture was added to each well of the blocked 96-well ELISA plate and incubated at 37° C. for 1 hour. After washing four times with PBST, 100 μL of Strep-HRP (BD, Catalog No. 554066) diluted 1:5000 was added to each well of the ELISA plate and incubated at 37° C. for 1 hour. After washing 4 times with PBST, TMB was used for color development. The absorbance at 450 nm and 630 nm was detected by a microplate reader, and OD450-OD630 was calculated. The fluorescence intensity was fitted using a four-parameter model, and the IC₅₀ value of the blocking activity of each antibody was calculated.

In assay [12] the target is T2, human PD-1 on the cell surface. The experiment in a line: flow cytometry, 293T-hPD-1 cells, batch FACS#1. On the procedure:
as §2

For assay [13] the target is unchanged. The experiment in a line: flow cytometry on activated human T cells (CD3+), PE anti-human IgG Fc. How it is done:
as §1

T1 sequence (P16410 36-223): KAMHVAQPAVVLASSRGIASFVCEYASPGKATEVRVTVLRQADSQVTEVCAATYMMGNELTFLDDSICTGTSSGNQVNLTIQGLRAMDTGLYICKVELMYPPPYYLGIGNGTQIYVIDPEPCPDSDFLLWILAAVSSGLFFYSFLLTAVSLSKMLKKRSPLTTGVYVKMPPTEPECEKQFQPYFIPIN
T2 sequence (Q15116 25-288): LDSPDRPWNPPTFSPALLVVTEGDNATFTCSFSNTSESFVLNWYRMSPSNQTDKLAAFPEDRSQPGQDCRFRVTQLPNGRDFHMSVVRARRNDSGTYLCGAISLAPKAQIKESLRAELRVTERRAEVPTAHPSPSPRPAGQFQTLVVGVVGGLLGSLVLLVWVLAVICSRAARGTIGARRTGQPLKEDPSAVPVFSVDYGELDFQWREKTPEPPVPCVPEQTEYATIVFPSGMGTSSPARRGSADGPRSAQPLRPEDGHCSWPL
T3 sequence (Q15116 25-167 limits assumed): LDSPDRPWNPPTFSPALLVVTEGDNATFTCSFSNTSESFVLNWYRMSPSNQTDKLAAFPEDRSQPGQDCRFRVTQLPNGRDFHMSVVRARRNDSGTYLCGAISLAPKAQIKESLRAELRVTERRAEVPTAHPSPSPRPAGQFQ
Chain of human PD-1 protein (Acro, PD1-H5257) (Q15116 25-167 limits assumed): as above

B1: 202F1-hIgG4 antibody (antibody, V domains shown)
VH: EVQLLESGGGLVQPGGSLRLSCAASGSIFSINHMAWYRQAPGKQRELVAGVNSRGTTNYVDSVKGRFTISRDNSKNTLYLQMNSLRAEDTAVYYCRALGGAVAAWGQGTLVTVSS
As for B1, the IC50 was 10.1 nM in [1] and 4.74 nM in [2]. Besides, the EC50 in [3] is 1.46 nM; in assay [4], 2.31 nM.

B2: CQ1-3/1-11-hIgG4 antibody (antibody, V domains shown)
VH: EVQLVESGGGLVQPGGSLRLSCAASGFTFSSYGMSWVRQAPGKGLEWVSTISGGGRDTYYPDSVKGRFTISRDNSKNTLYLQMNSLRAEDTAVYYCARQNGITWFADWGQGTLVTVSS
VL: DIQMTQSPSSLSASVGDRVTITCRASESVDNYGISFMNWYQQKPGKAPKLLIYAASNQGSGVPSRFSGSGSGTDFTLTISSLQPEDFATYYCQQSKEVPWTFGGGTKVEIKR
notes: also called anti-PD-1 antibody CQ1-3/1-11
As to B2, the EC50 in [5] was determined as 1.12 nM; in assay [6] it was 0.041 nM; in [9] it was 4.34 nM; in [12], 2.8 nM; in assay [13], 0.244 nM. Moreover, the IC50 turned out to be 4 nM in assay [7], 3.19 nM in assay [8] and 0.731 nM in assay [11]. The same molecule returned a Kd in assay [10] of 1.96 nM.
